Reference: US20110300138A1 (published 2011)

B1: K1-70 IgG (antibody, V domains shown)
VH: EVQLVQSGAEVKKPGQSLKISCKASGYSLTDNWIGWVRQKPGKGLEWMGIIYPGDSDTRYSPSFQGQVTISADKSINTAYLQWSSLKASDTAIYYCVGLDWNYNPLRYWGPGTLVTVSS
VL: QSVLTQPPSVSAAPGQKVTISCSGSSSDIGSNYVSWYQQFPGTAPKLLIYDNNKRPSAIPDRFSGSKSGTSATLGITGLQTGDEADYYCGTWDSRLGIAVFGGGTQLTVLG
notes: Human IgG1 with lambda light chains, purified from hetero-hybridoma culture supernatant
B2: K1-70 Fab (Fab, V domains shown)
VH: B1 VH
VL: B1 VL
notes: also called Fab of K1-70
B3: K1-18 IgG (antibody, V domains shown)
VH: EVQLVQSGAEVKKPGESLKISCKGSGYSFTNYWIGWVRQMPGKGLEWMGIIYPYDSDTRYSPSFEGQVTISADKSIRTAYLHWSSLKASDTAMYYCVRPRDGSYPYDAFDIWGQGTMVTVSS
VL: EIVLTQSPGTLSLSPGERATLSCRASQSVSNNYLAWYQQKPGQAPRLLIYGASSRATGIPDRFSGSGSGTDFTLTISRLEPEDFAVYYCQHCGSSLRAFGQGTKVEIKR
notes: Human IgG1 with kappa light chains, purified from hetero-hybridoma culture supernatant; also called human monoclonal autoantibody to the TSHR with TSH agonist (stimulating) activity
B4: K1-18 IgG (antibody, V domains shown)
VH: B3 VH
VL: B3 VL
notes: Human IgG1 kappa purified from hetero-hybridoma supernatant
B5: K1-18 Fab (Fab, V domains shown)
VH: B3 VH
VL: B3 VL
notes: residue limits as in claim 65
B6: K1-70 IgG (antibody, V domains shown)
VH: B1 VH
VL: B1 VL
notes: Human IgG1 lambda purified from hetero-hybridoma supernatant
B7: K1-70 Fab (Fab, V domains shown)
VH: B1 VH
VL: B1 VL
notes: residue limits as in claims 56 and 57

Legend:
[1] = biological target: T1, human TSH receptor (full length), coated on ELISA plate wells (human, UniProt P16473 22-764); assay: ELISA, inhibition of M22 Fab-peroxidase (competitor) binding to TSHR coated wells; 0.01 µg/mL in assay buffer; mean ± SD
T1 construct: TSHR coated ELISA plate wells of the TRAb ELISA; also called thyroid stimulating hormone receptor

[2] = biological target: T1, human TSH receptor (full length), …; assay: ELISA, inhibition of M22 Fab-peroxidase (competitor) binding to TSHR coated wells; 0.03 µg/mL in assay buffer; mean ± SD
[3] = biological target: T1, human TSH receptor (full length), …; assay: ELISA, inhibition of M22 Fab-peroxidase (competitor) binding to TSHR coated wells; 0.1 µg/mL in HBD serum; mean ± SD
[4] = biological target: T1, human TSH receptor (full length), …; assay: ELISA, inhibition of M22 Fab-peroxidase (competitor) binding to TSHR coated wells; 0.03 µg/mL in HBD serum; mean ± SD
[5] = biological target: T1, human TSH receptor (full length), …; assay: ELISA, inhibition of M22 Fab-peroxidase (competitor) binding to TSHR coated wells; 0.01 µg/mL in HBD serum; mean ± SD
[6] = biological target: T1, human TSH receptor (full length), …; assay: ELISA, inhibition of M22 Fab-peroxidase (competitor) binding to TSHR coated wells; 1 µg/mL in HBD serum; mean ± SD
[7] = biological target: T1, human TSH receptor (full length), …; assay: ELISA, inhibition of M22 Fab-peroxidase (competitor) binding to TSHR coated wells; 1 µg/mL in assay buffer; mean ± SD
[8] = biological target: T1, human TSH receptor (full length), …; assay: ELISA, inhibition of M22 Fab-peroxidase (competitor) binding to TSHR coated wells; 0.1 µg/mL in assay buffer; mean ± SD
[9] = biological target: T2, TSHR260-alkaline phosphatase (TSHR260-AP) (human, UniProt P05187 23-511); assay: TSHR260-AP bridge ELISA, full length TSHR on wells; 0.005 µg/mL, diluted in assay buffer
T2 construct: Fusion of human TSHR amino acids 22-260 (construct codes 1-260, 1-21 being the leader) with secreted alkaline phosphatase, expressed in insect cells; In the ELISA the antibody bridges full length detergent-solubilised TSHR coated on the wells and TSHR260-AP in the liquid phase
Method: (§1) An ELISA was established based on the ability of divalent TSHR antibodies to bind with one antigen binding site to TSHR coated onto an ELISA plate well and with the other antigen binding site to TSHR260-AP in a liquid phase i.e. forming a bridge. TSHR in the form of full length detergent-solubilised receptor expressed in CHO cells was coated onto ELISA plate wells via a C-terminal antibody as described previously (Bolton J et al 1999 supra). In the assay 75 μL of start buffer (as described for TRAb ELISA; Bolton J, et al 1999 supra) and 75 μL of test sample (patient sera or monoclonal antibodies) were added to the ELISA plate wells coated with the full length detergent solubilised TSHR and incubated for 2 hours at room temperature with shaking (500 rpm). Then the contents of the wells were removed, the wells washed 3 times with wash buffer (50 mmol/L NaCl, 20 mmol/L Tris pH 7.8, 1% Triton X-100) followed by addition of […] of TSHR260-AP (diluted in wash buffer containing 0.2 g/L MgCl₂-6H₂O and 2 g/L BSA). After incubation for 1 hour at room temperature with shaking (500 rpm) the wells were emptied, washed (3 times) and 100 μL of p-nitrophenyl phosphate (pNpp) substrate (Europa Bioproducts Ltd, Ely, Cambridge UK) added and the plate incubated in the dark for 45 minutes. Thereafter 100 μL of stop solution (1 mol/L NaOH) was added and the absorbance read at 405 nm in an ELISA plate reader. […] In some experiments solubilised preparations of recombinant TSHR containing mutation R255D expressed in CHO cells were used to coat the ELISA plate wells.
(§2) TSHR260-AP is a fusion protein consisting of a fragment of human TSHR (amino acids 22-260) e with alkaline phosphatase. […] Mean absorbance = mean of duplicate determinations.

[10] = biological target: T2, TSHR260-alkaline phosphatase …; assay: TSHR260-AP bridge ELISA, full length TSHR on wells; 0.005 µg/mL, diluted in HBD
Method: as §1, §2

[11] = biological target: T2, TSHR260-alkaline phosphatase …; assay: TSHR260-AP bridge ELISA, full length TSHR on wells; 10 µg/mL, diluted in assay buffer
Method: as §1, §2

[12] = biological target: T2, TSHR260-alkaline phosphatase …; assay: TSHR260-AP bridge ELISA, full length TSHR on wells; 250 µg/mL, diluted in assay buffer
Method: as §1, §2

[13] = biological target: T2, TSHR260-alkaline phosphatase …; assay: TSHR260-AP bridge ELISA, full length TSHR on wells; 250 µg/mL, diluted in HBD
Method: as §1, §2

[14] = biological target: T2, TSHR260-alkaline phosphatase …; assay: TSHR260-AP bridge ELISA, full length TSHR on wells; 0.1 µg/mL, diluted in HBD
Method: as §1, §2

[15] = biological target: T2, TSHR260-alkaline phosphatase …; assay: TSHR260-AP bridge ELISA, full length TSHR on wells; 0.1 µg/mL, diluted in assay buffer
Method: as §1, §2

[16] = biological target: T2, TSHR260-alkaline phosphatase …; assay: TSHR260-AP bridge ELISA, full length TSHR on wells; 10 µg/mL, diluted in HBD
Method: as §1, §2

Binder	Inhibition of binding (%) [1] [%]	Inhibition of binding (%) [2] [%]	Inhibition of binding (%) [3] [%]	Inhibition of binding (%) [4] [%]	Inhibition of binding (%) [5] [%]	Inhibition of binding (%) [6] [%]	Inhibition of binding (%) [7] [%]	Inhibition of binding (%) [8] [%]	Mean absorbance at 405 nm [9] [absorbance at 405 nm]	Mean absorbance at 405 nm [10] [absorbance at 405 nm]	Mean absorbance at 405 nm [11] [absorbance at 405 nm]	Mean absorbance at 405 nm [12] [absorbance at 405 nm]	Mean absorbance at 405 nm [13] [absorbance at 405 nm]	Mean absorbance at 405 nm [14] [absorbance at 405 nm]	Mean absorbance at 405 nm [15] [absorbance at 405 nm]	Mean absorbance at 405 nm [16] [absorbance at 405 nm]
B1	28	71.8	69.7	34.5	9.2	96.4	98.1	93	–	–	–	–	–	–	–	–
B2	57.5	82	86	58.8	27.9	96.1	97.2	94.6	–	–	–	–	–	–	–	–
B3	8.9	35.7	56.3	13.6	-4	94.6	96.3	71.9	–	–	–	–	–	–	–	–
B4	–	–	–	–	–	–	–	–	0.136	0.013	0.8	1.2	0.722	0.292	0.545	0.66
B5	–	–	–	–	–	–	–	–	-0.004	-0.011	0.008	0.049	-0.007	-0.011	0.002	-0.002
B6	–	–	–	–	–	–	–	–	0.085	0.045	0.885	1.13	0.817	0.44	0.713	0.738
B7	–	–	–	–	–	–	–	–	-0.004	-0.01	0.033	0.056	0.02	-0.01	0.007	0.018
